{"source": "IntAct's records for PubMed 20498073", "target": "expa_drome ex (UniProt Q07436)", "sequence (Q07436 whole entry)": "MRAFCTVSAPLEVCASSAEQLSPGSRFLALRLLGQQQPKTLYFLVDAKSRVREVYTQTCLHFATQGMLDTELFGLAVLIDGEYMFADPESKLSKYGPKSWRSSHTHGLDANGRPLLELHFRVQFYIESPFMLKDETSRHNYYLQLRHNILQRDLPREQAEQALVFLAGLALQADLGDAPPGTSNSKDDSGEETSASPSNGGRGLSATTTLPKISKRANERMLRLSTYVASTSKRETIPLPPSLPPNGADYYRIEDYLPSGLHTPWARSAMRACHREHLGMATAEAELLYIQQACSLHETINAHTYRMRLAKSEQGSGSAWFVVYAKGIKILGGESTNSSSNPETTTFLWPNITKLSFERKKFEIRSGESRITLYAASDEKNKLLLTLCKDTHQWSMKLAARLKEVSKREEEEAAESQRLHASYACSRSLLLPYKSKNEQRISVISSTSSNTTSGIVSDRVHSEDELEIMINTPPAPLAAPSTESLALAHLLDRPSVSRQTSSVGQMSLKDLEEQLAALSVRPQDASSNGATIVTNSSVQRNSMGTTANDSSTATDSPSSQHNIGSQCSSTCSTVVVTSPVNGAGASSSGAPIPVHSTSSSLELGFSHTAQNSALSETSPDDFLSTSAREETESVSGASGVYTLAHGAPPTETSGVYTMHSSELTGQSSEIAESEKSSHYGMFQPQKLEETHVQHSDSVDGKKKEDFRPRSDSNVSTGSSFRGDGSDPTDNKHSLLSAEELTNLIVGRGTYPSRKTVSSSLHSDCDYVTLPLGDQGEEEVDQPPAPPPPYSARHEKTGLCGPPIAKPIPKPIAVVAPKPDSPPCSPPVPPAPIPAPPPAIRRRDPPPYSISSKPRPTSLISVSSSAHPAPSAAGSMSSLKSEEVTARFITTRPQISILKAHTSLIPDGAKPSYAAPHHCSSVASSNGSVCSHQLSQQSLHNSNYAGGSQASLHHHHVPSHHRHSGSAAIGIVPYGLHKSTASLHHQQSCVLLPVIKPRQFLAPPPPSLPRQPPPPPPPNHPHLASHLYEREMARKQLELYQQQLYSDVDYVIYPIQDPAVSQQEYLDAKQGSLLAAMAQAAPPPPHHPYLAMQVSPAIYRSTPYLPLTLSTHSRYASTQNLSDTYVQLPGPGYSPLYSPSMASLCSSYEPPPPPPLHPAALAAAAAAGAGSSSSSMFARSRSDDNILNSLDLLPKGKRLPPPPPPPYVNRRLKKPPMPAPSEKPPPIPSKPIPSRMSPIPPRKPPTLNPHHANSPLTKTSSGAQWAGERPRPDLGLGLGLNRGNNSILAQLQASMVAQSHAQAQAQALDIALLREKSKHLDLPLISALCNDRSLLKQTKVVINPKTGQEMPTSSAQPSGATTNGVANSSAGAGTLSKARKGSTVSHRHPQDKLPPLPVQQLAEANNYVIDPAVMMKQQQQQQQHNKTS"}
{"substance": "Protein crumbs (Drosophila melanogaster (Fruit fly)), P10040 Y2119A;P2121A;E2125A", "values": [{"measurement": "effect of a mutation on the interaction", "result": "disrupting interaction"}]}
